Legend:
mutant CycT14MUT(280) = mutant CycT14MUT(280) (UniProt O60563); experiment: co-IP
mutant CycT14MUT = mutant CycT14MUT (UniProt O60563); experiment: co-IP

| fold change of co-IP against WT CycT1(280) (mutant CycT14MUT(280)) [fold] | fold change of co-IP against WT CycT1 (mutant CycT14MUT) [fold] | Binder |
| --- | --- | --- |
| 8.9 | 8.3 | WT Siah2 (enzyme) MSRPSSTGPSANKPCSKQPPPQPQHTPSPAAPPAAATISAAGPGSSAVPAAAAVISGPGGGGGAGPVSPQHHELTSLFECPVCFDYVLPPILQCQAGHLVCNQCRQKLSCCPTCRGALTPSIRNLAMEKVASAVLFPCKYATTGCSLTLHHTEKPEHEDICEYRPYSCPCPGASCKWQGSLEAVMSHLMHAHKSITTLQGEDIVFLATDINLPGAVDWVMMQSCFGHHFMLVLEKQEKYEGHQQFFAIVLLIGTRKQAENFAYRLELNGNRRRLTWEATPRSIHDGVAAAIMNSDCLVFDTAIAHLFADNGNLGINVTISTCCP |
| 5.1 | 5.7 | DN Siah1C75S (enzyme) MSRQTATALPTGTSKCPPSQRVPALTGTTASNNDLASLFECPVCFDYVLPPILQCQSGHLVCSNCRPKLTCCPTSRGPLGSIRNLAMEKVANSVLFPCKYASSGCEITLPHTEKADHEELCEFRPYSCPCPGASCKWQGSLDAVMPHLMHQHKSITTLQGEDIVFLATDINLPGAVDWVMMQSCFGFHFMLVLEKQEKYDGHQQFFAIVQLIGTRKQAENFAYRLELNGHRRRLTWEATPRSIHEGIATAIMNSDCLVFDTSIAQLFAENGNLGINVTISMC |
